In patent publication US20040063632A1 (Bayer, published 2004):

T1: Human FVIIa (human, UniProt P08709 61-466)
T1 construct: Bought protein; also called factor VIIa
T1 sequence (looked up): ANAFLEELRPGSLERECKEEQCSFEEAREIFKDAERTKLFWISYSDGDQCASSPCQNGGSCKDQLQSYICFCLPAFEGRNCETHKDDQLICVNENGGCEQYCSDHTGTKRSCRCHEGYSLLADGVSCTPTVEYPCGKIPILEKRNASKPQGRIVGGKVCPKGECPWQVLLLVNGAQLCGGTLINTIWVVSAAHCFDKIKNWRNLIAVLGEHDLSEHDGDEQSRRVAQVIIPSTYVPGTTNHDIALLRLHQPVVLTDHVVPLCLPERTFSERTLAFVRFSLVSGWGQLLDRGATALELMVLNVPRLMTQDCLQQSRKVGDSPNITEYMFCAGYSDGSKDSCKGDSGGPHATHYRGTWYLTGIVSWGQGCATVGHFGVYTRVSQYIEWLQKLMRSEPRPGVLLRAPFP

B1: scFv(TF)3e10-TMi456 fusion protein (other)
chain: EMAQVNLRESGGTLVQPGGSLRLSCAASGFSFTDAWMSWVRQAPGKELEWVSSISGSGGSTYYAGSVKGRFTISRDNSKNTLYLQMNSLRAEDTAVYYCARVLSLTDYYWYGMDVWGQGTLVTVSAGGGGSGAPNFMLTQPHSVSASPGKTVTISCTRSSGSVASYYVQWYQQRPGSSPTTVIYEDNHRPSGVPDRFSGSIDTSSNSASLTISGLKTEDEADYYCQSYDSNNLVVFGGGTKLTVLGAAAGGGGSGGGGSGGGGSVEPVDPCFRANCEYQCQPLNQTSYLCVCAEGFAPIPHEPHRCQMFCNQTACPADCDPNTQASCECPEGYILDDGFICTDIDECENGGFCSGVCHNLPGTFECICGPDSALAGQIGTDCAAAGAPVPYPDPLEPRAA
B2: recombinant human soluble tissue factor (receptor, UniProt P13726 33-251, looked up)
chain: SGTTNTVAAYNLTWKSTNFKTILEWEPKPVNQVYTVQISTKSGDWKSKCFYTTDTECDLTDEIVKDVKQTYLARVFSYPAGNVESTGSAGEPLYENSPEFTPYLETNLGQPTIQSFEQVGTKVNVTVEDERTLVRRNNTFLSLRDVFGKDLIYTLYYWKSSSSGKKTAKTNTNEFLIDVDKGENYCFSVQAVIPSRTVNRKSTDSPVECMGQEKGEFRE
notes: extracellular domain; also called sTF; soluble TF
B3: scFV(TF)3e10 (dimer) (scFv)
scFv: EMAQVNLRESGGTLVQPGGSLRLSCAASGFSFTDAWMSWVRQAPGKELEWVSSISGSGGSTYYAGSVKGRFTISRDNSKNTLYLQMNSLRAEDTAVYYCARVLSLTDYYWYGMDVWGQGTLVTVSAGGGGSGAPNFMLTQPHSVSASPGKTVTISCTRSSGSVASYYVQWYQQRPGSSPTTVIYEDNHRPSGVPDRFSGSIDTSSNSASLTISGLKTEDEADYYCQSYDSNNLVVFGGGTKLTVLGAAAGAPVPYPDPLEPRAA
B4: single chain anti-TF antibody scFv(TF)3e10 (scFv)
scFv: B3 scFv
notes: Human scFv from phage library HuPhaBL3

Assays:
[1] = target: full length TF in phospholipid vesicles (human, UniProt P13726 33-295); test: cell-based or functional assay
[2] = target: T1, Human FVIIa; test: sTF/FVIIa activation assay: sTF titrated against 2 nM FVIIa without antibody, rate of cleavage of chromogenic substrate S-2266, apparent KD from a 4-parameter fit
[3] = target: T2, sTF/FVIIa complex (preformed from sTF and a 2.3 fold molar excess of FVIIai) (human, UniProt P13726 33-251; P08709 61-466, limits assumed, active site inhibited (FVIIai); the way of inhibition is not stated for this batch); test: isothermal titration calorimetry (MicroCal VP-ITC), 1.2 uM complex in the cell, 65 uM scFv in the syringe; microcalorimetry, TF/FVIIa complex as target
T2 construct: Complex used in the microcalorimeter cell; complete complexing of sTF verified by size exclusion chromatography; also called sTF/VIIa complex; FVIIa/TF complex
Procedure: (§1) FIG. 3. […] Isothermal titration calorimetry was performed using a MicroCal VP-ITC instrument. […] Data analysis was done using MicroCal Origin software. The data was fit to a single binding site.

[4] = target: B2; test: isothermal titration calorimetry (MicroCal VP-ITC), 141 µM scFv(TF)3e10 in the syringe, 10 µM sTF in the cell, OneSites model
Procedure: as §1

[5] = target: B2; test: isothermal titration calorimetry (MicroCal VP-ITC), 10 uM sTF in the cell, 141 uM scFv in the syringe; microcalorimetry, free sTF as target
Procedure: as §1

[6] = target: T2, sTF/FVIIa complex (preformed from sTF …); test: isothermal titration calorimetry (MicroCal VP-ITC), 65 µM scFv(TF)3e10 in the syringe, 1.2 µM preformed sTF/FVIIai complex in the cell, OneSites model
Procedure: as §1

[7] = target: B2; test: apparent KD from the sTF/FVIIa chromogenic activation assay (3 nM sTF, 2 nM FVIIa, antibody titrated, 4-parameter fit); sTF/FVIIa chromogenic assay, apparent KD
[8] = target: T2, sTF/FVIIa complex (preformed from sTF …); test: isothermal titration calorimetry
Procedure: as §1

## B1
[1]
  IC50 of FX activation by the FVIIa/TF complex: 0.5 nM
  TM cofactor activity (protein C activation assay on TF-rich surface): > 5 fold

## B2
[2]
  Kd: 13 nM

## B3
[1]
  IC50 for inhibition in the FX activation assay: 0.44 nM

## B4
[3]
  Kd: 33 nM
[4]
  N: 0.878
  ΔH: -21.9 kcal/mol
  ΔS: -43.6
[5]
  Kd: 600 nM
[6]
  N: 1.14
  ΔH: -28.6 kcal/mol
  ΔS: -60
[7]
  Kd: 65.4 nM
[8]
  fold higher affinity than for free sTF: 20 fold
